In patent US20150315275A1 one finds average signal (MFI) and MFI (average background signal) data, which are given here for one substance.

In test [1] the target is human B7-H4 expressed on cells (human) (UniProt Q7Z7D3). As to the kind of experiment: saturation binding, flow cytometry on 624mel/B7-H4 cells; negative control used as background.
Test [2] shares this target. Put plainly: flow cytometry on 624mel/B7-H4 cells, negative control antibody; signal subtracted as background from all other points. For orientation: A flow cytometer gives signals particle by particle.

human B7-H4 expressed on cells (human), sequence (Q7Z7D3 other isoform, or with tags, fused parts or gaps limits assumed): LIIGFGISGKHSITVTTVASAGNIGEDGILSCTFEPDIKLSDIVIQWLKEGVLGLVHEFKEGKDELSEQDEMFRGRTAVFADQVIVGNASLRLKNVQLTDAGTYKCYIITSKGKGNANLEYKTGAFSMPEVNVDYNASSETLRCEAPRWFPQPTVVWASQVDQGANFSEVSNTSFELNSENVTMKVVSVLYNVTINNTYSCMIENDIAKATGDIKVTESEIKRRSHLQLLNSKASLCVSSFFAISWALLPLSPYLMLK

As for “negative control antibody (anti-PD-1 antibody)”, the average signal (MFI) in test [1] was 245 MFI. The MFI (average background signal) in test [2] is 245 MFI.
